The target in one series is Hfq:S38W (Escherichia coli, UniProt P0A6X3 1-102, S38W). Description: Trp fluorescence quenching.
Series [1] addresses T1, Hfq:R16A (Escherichia coli, UniProt P0A6X3 1-102, R16A). Description: fluorescence anisotropy. (In fluorescence polarisation assays a small probe gives low polarisation when free and higher when bound to something large.)
For series [2], the target named is T2, Hfq WT (Escherichia coli, UniProt P0A6X3 1-102). The experiment in a line: fluorescence anisotropy.
The target in series [3] is T2, Hfq WT. Description: fluorescence anisotropy. This is another data set of the same source.
In another series the target is Hfq:R16A,S65C-Cy3 (Escherichia coli, UniProt P0A6X3 1-102, R16A;S65C). The experiment in a line: stopped-flow FRET.
The target in series [4] is T1, Hfq:R16A. The experiment in a line: fluorescence anisotropy. This is another data set of the same source.
The target in series [5] is T3, Hfq TM (Escherichia coli, UniProt P0A6X3 1-102, R16A;R17A;R19D). Description: fluorescence anisotropy.
The target in series [6] is T3, Hfq TM. Description: fluorescence anisotropy. This is another data set of the same source.

Usually Kd stands for the free concentration of one partner at which half of the binding sites on the other are occupied at equilibrium, for simple one-to-one binding.

Like-named read-outs stand apart in the source and are kept apart here.

Turning to GUGGUCAGUCGAGUGGAAAAAAAAAAAAAAAAAA (ssRNA) [Oligo CA], the binding result in the series with Hfq:S38W is reported as “binds”.

Turning to GUGGUCAGUCGAGUGGUUUUUU (ssRNA) [Oligo CU], the Kd in the series with Hfq:R16A [1] is 0.07 nM; with Hfq WT [2] it was 0.1 nM. Besides, in the series with Hfq:S38W, the binding result is listed as “binds”.

CGAAUUUUUUAAGUGC (ssRNA) [D16]: the equilibrium dissociation constant (Kd) is 22.5 nM with Hfq WT [3], 39.8 nM in the series with Hfq:R16A [4] and 17.5 nM with Hfq TM [5]. For the same molecule, in the series with Hfq:R16A,S65C-Cy3, the binding result was “binds”.

Turning to AAAAAAAAAAAAAAAAAA (ssRNA) [A18], the Kd with Hfq:R16A [1] stood at 2.3 nM; with Hfq WT [3], 13.2 nM; in the series with Hfq TM [6], 16.8 nM.

For CGAAUUUUUUAAGUGC (ssRNA) [D16 unlabeled], the binding result with Hfq:S38W is listed as “binds”.

Values taken from article PMC3753642.
